The target of the test is T1, GST-ZW10 (full length GST-tagged human ZW10) (human, UniProt O43264 1-779).
T1 sequence (looked up): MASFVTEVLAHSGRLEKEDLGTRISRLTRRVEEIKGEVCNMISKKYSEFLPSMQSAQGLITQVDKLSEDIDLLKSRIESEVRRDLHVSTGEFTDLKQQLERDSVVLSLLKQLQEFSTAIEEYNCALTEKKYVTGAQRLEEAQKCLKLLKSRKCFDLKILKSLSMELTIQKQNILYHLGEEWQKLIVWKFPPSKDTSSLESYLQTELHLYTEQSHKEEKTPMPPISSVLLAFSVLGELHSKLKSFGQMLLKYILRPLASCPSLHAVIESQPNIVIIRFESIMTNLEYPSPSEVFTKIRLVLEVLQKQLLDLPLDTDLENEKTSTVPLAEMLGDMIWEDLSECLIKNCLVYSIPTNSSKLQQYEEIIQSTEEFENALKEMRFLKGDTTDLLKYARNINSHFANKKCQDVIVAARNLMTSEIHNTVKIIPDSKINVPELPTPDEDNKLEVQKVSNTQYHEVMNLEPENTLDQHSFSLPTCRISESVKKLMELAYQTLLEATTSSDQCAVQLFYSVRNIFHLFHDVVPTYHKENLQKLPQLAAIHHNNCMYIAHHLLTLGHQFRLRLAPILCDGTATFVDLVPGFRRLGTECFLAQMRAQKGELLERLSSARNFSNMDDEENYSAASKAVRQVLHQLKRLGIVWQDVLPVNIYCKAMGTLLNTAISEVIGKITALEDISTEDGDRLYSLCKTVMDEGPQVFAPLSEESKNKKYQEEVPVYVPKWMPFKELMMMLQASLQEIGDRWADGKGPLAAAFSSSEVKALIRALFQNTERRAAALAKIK
Briefly: pull-down.

B1: His-tagged human Chmp4c (natural protein, UniProt Q96CF2 1-233, looked up)
chain: MSKLGKFFKGGGSSKSRAAPSPQEALVRLRETEEMLGKKQEYLENRIQREIALAKKHGTQNKRAALQALKRKKRFEKQLTQIDGTLSTIEFQREALENSHTNTEVLRNMGFAAKAMKSVHENMDLNKIDDLMQEITEQQDIAQEISEAFSQRVGFGDDFDEDELMAELEELEQEELNKKMTNIRLPNVPSSSLPAQPNRKPGMSSTARRSRAASSQRAEEEDDDIKQLAAWAT
With B1, the binding result is “binds”.

Values taken from paper PMC5839794 (The Journal of Cell Biology, 2018).
